According to publication doi:10.1101/2023.01.23.525163:

Molecular target: His-caltubin-Tat (cell-penetrating caltubin) (Lymnaea stagnalis | HIV)
Test: ITC

With Ac-LDHKFDLMYAKRAFV-NH2 [L391 peptide (synthetic, TUBA1 L391-V405)] as the binder, how does the Kd read?
The Kd was 3.42 µM.
